The results in this text go back to patent publication US10450368.

The target of experiment [1] is Scl-70 (UniProt P11387). The experiment can be described thus: AtheNA, Ab 6.25 ug/ml.
In experiment [2] the target is Sm (Smith antigen). The experiment can be described thus: AtheNA, Ab 6.25 ug/ml.
Experiment [3] has as its target Jo-1 (UniProt P12081). Nature of the experiment: AtheNA, Ab 6.25 ug/ml.
In experiment [4] the target is SSA. The experiment can be described thus: AtheNA, Ab 6.25 ug/ml.
In experiment [5] the target is Centromere B (UniProt P07199). The experiment can be described thus: AtheNA, Ab 6.25 ug/ml.
Chain of Centromere B (P07199 whole entry): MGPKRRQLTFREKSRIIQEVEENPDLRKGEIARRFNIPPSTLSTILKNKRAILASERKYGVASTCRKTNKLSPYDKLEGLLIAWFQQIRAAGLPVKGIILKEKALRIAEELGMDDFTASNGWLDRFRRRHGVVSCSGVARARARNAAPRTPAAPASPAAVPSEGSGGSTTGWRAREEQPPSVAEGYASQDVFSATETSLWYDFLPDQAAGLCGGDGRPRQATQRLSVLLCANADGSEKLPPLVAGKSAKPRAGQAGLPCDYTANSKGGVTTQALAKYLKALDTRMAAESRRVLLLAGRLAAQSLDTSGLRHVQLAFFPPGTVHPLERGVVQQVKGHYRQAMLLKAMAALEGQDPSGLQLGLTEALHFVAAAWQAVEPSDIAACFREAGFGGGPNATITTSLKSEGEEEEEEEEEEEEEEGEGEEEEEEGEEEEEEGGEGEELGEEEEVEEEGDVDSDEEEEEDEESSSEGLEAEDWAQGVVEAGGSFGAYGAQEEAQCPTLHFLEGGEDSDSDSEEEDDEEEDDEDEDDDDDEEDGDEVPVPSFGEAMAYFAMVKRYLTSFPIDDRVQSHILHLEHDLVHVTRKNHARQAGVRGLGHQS
Experiment [6] has as its target RNP (ribonucleoprotein). The experiment can be described thus: AtheNA, Ab 6.25 ug/ml.
Experiment [7] has as its target SSB (UniProt P05455). The experiment can be described thus: AtheNA, Ab 6.25 ug/ml.
Experiment [8] addresses Histones. Nature of the experiment: AtheNA, Ab 6.25 ug/ml.
Experiment [9] has as its target HIV-1 CH505 transmitted/founder gp120 Env (HIV-1). Nature of the experiment: competition ELISA, blocking of CH235 binding to CH505 TF gp120.
For experiment [10] the target is unchanged. The experiment can be described thus: competition ELISA, blocking of CH239 binding to CH505 TF gp120.
Experiment [11] addresses Scl-70 (UniProt P11387). Nature of the experiment: AtheNA, Ab 25 ug/ml.
Experiment [12] addresses Sm (Smith antigen). The experiment can be described thus: AtheNA, Ab 25 ug/ml.
Experiment [13] addresses Jo-1 (UniProt P12081). Nature of the experiment: AtheNA, Ab 25 ug/ml.
In experiment [14] the target is SSA. The experiment can be described thus: AtheNA, Ab 25 ug/ml.
For experiment [15], the target named is Centromere B (UniProt P07199). Nature of the experiment: AtheNA, Ab 25 ug/ml.
Experiment [16] addresses RNP (ribonucleoprotein). The experiment can be described thus: AtheNA, Ab 25 ug/ml.
The target in experiment [17] is SSB (UniProt P05455). The experiment can be described thus: AtheNA, Ab 25 ug/ml.
Chain of SSB (P05455 whole entry): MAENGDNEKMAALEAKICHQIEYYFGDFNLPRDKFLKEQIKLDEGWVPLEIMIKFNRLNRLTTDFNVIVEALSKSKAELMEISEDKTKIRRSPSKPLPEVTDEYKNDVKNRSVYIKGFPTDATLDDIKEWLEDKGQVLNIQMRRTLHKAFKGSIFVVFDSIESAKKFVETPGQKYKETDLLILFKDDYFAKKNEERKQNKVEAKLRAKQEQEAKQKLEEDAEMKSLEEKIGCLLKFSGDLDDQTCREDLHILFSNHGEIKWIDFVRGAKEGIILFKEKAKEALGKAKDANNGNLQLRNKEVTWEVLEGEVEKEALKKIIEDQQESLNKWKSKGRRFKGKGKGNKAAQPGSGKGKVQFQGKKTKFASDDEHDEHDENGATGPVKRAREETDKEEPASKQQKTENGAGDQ
For experiment [18], the target named is Histones. Nature of the experiment: AtheNA, Ab 25 ug/ml.
Experiment [19] addresses HIV-1 CH505 transmitted/founder gp120 Env (HIV-1). Nature of the experiment: competition ELISA, blocking of CH236 binding to CH505 TF gp120.
Experiment [20] has the same target. Nature of the experiment: competition ELISA; competitor biotinylated CH241 on CH505 TF gp120.

Chain of Scl-70 (P11387 whole entry): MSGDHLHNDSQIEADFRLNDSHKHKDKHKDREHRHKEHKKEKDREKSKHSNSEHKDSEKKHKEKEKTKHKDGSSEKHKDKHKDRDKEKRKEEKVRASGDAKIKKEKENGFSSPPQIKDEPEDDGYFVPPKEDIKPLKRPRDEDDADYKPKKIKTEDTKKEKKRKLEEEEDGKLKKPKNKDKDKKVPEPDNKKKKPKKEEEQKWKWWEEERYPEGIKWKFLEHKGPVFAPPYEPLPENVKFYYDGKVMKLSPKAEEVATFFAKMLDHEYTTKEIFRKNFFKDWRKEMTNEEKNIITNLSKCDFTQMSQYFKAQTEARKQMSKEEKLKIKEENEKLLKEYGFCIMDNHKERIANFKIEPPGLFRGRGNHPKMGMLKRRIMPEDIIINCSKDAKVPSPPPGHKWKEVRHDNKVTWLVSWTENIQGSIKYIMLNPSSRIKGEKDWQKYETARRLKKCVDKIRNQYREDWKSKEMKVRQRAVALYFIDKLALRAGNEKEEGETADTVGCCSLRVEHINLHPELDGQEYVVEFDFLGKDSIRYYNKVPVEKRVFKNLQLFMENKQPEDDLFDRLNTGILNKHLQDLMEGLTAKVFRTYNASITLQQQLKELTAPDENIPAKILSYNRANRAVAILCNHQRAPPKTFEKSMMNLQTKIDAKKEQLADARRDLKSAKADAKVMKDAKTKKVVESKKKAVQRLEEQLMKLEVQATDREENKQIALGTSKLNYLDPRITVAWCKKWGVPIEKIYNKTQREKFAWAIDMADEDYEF
Chain of Jo-1 (P12081 whole entry): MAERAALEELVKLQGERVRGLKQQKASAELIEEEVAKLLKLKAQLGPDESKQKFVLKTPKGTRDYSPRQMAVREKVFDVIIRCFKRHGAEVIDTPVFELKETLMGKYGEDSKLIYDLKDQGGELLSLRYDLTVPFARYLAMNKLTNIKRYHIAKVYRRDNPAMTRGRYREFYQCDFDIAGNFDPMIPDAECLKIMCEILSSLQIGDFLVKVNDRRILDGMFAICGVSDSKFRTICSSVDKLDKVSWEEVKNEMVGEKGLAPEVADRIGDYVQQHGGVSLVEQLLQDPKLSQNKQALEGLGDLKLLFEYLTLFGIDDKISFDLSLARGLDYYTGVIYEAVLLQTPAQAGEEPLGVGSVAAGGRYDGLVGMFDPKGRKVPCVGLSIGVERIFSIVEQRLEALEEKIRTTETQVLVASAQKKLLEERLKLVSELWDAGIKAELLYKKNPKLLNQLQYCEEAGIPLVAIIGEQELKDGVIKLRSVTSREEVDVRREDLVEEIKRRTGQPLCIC

CH106 (antibody): the AtheNA signal (relative luminescence units) amounted to 2 with Scl-70 [1]; 5 with Sm (Smith antigen) [2]; 4 in the experiment with Jo-1 [3]; 10 in the experiment with SSA [4]; 1 with Centromere B [5]; 1 in the experiment with RNP (ribonucleoprotein) [6]. The AtheNA signal (relative luminescence units) with SSB [7] turned out to be 6; in the experiment with Histones [8], 2; with Scl-70 [11], 2; with Sm (Smith antigen) [12], 1; in the experiment with Jo-1 [13], 2; in the experiment with SSA [14] it was 8. Moreover, the AtheNA signal (relative luminescence units) in the experiment with Centromere B [15] was 2; with RNP (ribonucleoprotein) [16] it was 3; in the experiment with SSB [17] it was 3; in the experiment with Histones [18] it was 3. For the same substance, the IC50 in experiment [9] stood at 4.3 µg/mL; in experiment [10] it was 4.6 µg/mL; in experiment [19], 6.8 µg/mL; in experiment [20] it was 14.3 µg/mL.
